Measured values taken from the supplement of paper PMC9112550, “Optimization of the antimicrobial peptide Bac7 by deep mutational scanning” (BMC Biology, 2022).

Test system: Escherichia coli TOP10
Test: shrunken log2 fold change of peptide-encoding DNA abundance (4.5 h post-induction vs induction); higher = less antimicrobial activity (less host growth inhibition)
Conditions: time post-induction: 4.5 h; library: site-saturation at positions 5, 18, 19, 20
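Further: peptides expressed intracellularly from a pBAD plasmid library in pooled LB shake-flask culture, induced with 0.3% L-arabinose, DNA abundance read by NGS, three biological replicates, DESeq2 with apeglm shrinkage.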

Sequence | shrunken log2 fold change
RRIRERPPRLPRPRPRPFLNPRP | -0.0647
RRIRARPPRLPRPRPRPSCLPRP | -0.0189
RRIRLRPPRLPRPRPRPTGYPRP | -0.206
RRIRWRPPRLPRPRPRPDVGPRP | 0.181
RRIRARPPRLPRPRPRPMMQPRP | 0.185
RRIRFRPPRLPRPRPRPQTTPRP | 0.00489
RRIRHRPPRLPRPRPRPIQWPRP | -0.01
RRIRLRPPRLPRPRPRPGGAPRP | 0.384
RRIRSRPPRLPRPRPRPYHHPRP | -0.511
RRIRNRPPRLPRPRPRPKDPPRP | 0.0665
RRIRLRPPRLPRPRPRPNEEPRP | 0.00826
RRIRSRPPRLPRPRPRPPQFPRP | -0.103
RRIRSRPPRLPRPRPRPLRSPRP | 0.747
RRIRMRPPRLPRPRPRPLGVPRP | 0.8
RRIRCRPPRLPRPRPRPKNLPRP | -0.292
RRIRHRPPRLPRPRPRPCDRPRP | -0.239
RRIRGRPPRLPRPRPRPYANPRP | 0.0266
RRIRPRPPRLPRPRPRPSTPPRP | -0.0766

Sequence | shrunken log2 fold change
RRIRVRPPRLPRPRPRPQWRPRP | -0.0106
RRIRCRPPRLPRPRPRPSVQPRP | -0.579
RRIRQRPPRLPRPRPRPDQLPRP | -0.263
RRIRLRPPRLPRPRPRPAHRPRP | 0.278
RRIRERPPRLPRPRPRPKQGPRP | -0.0514
RRIRSRPPRLPRPRPRPNVPPRP | -0.131
RRIRNRPPRLPRPRPRPWFHPRP | -0.179
RRIRLRPPRLPRPRPRPKWYPRP | -0.299
RRIRSRPPRLPRPRPRPFMIPRP | -0.184
RRIRTRPPRLPRPRPRPCKHPRP | -0.0101
RRIRQRPPRLPRPRPRPNDVPRP | 0.00724
RRIRFRPPRLPRPRPRPSECPRP | -0.472
RRIRQRPPRLPRPRPRPFWLPRP | 0.0473
RRIRVRPPRLPRPRPRPFYYPRP | -0.556
RRIRDRPPRLPRPRPRPFCHPRP | -0.00713
RRIRWRPPRLPRPRPRPAIEPRP | -0.04
RRIRDRPPRLPRPRPRPTGTPRP | 0.0829
RRIRGRPPRLPRPRPRPRKVPRP | 0.741
